Here are results for one substance from US20210147504A1.

The target of this assay is rat ANP receptor (NPR-A) (rat) (UniProt P18910). The assay is described as follows: cell-based or functional assay.
rat ANP receptor (NPR-A) (rat), sequence (P18910 29-1057): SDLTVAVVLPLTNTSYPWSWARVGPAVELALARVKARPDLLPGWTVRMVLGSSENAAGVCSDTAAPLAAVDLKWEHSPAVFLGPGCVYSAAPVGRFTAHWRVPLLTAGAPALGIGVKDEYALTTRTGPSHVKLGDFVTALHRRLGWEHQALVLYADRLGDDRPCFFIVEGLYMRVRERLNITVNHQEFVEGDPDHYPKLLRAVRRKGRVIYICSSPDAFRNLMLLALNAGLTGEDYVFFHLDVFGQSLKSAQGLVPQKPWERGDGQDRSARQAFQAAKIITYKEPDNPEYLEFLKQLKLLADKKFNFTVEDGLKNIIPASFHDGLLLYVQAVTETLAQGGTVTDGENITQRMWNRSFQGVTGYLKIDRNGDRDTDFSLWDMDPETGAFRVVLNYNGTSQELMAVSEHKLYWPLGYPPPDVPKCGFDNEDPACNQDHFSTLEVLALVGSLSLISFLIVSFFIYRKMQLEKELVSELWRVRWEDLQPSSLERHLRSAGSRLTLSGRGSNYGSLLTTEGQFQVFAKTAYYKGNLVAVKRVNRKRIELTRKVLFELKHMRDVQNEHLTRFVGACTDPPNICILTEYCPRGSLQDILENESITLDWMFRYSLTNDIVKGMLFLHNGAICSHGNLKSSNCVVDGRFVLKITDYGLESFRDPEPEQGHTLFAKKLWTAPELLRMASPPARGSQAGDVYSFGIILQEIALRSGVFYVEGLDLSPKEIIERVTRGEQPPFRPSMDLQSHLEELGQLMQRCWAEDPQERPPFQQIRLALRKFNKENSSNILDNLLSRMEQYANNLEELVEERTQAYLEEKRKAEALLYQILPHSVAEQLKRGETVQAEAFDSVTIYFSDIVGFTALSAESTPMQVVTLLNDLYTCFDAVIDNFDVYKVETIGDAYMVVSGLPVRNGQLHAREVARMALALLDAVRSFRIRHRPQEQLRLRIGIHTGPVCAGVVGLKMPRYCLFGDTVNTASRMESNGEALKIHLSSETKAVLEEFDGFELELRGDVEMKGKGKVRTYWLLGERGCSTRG

BNP (Bachem, H-5968) (peptide) came in with an EC50, fluorescence signal of rat NPR-A cGMP reporter CHO cell line (GCaMP6/CNGA2) of 2.9 nM.
